Data: patent publication US20200181257A1 (Chugai, published 2020)
Like-named read-outs stand apart in the source and are kept apart here.

Legend:
Experiment in all cases: SPR, antibody captured on Protein A
[1] = biological target: T1, human Fcγ receptor hFcgRIa (human, UniProt P12314 16-292, limits assumed)
T1 construct: Construct used in the SPR assay is not described; also called hFcγRIa; FcγI
Protocol: (§1) The CH2 domain, which was modified in this examination, is known to be involved in interaction with several human Fcγ receptors (hereinafter denoted as hFcgRs) which affect effector functions. Therefore, the binding of TS1 and TS19 prepared by using the H chain of anti-IL6R produced in Example 2 to hFcgRs was measured, according to the method described in Reference Example 3.
(§2) Interactions between antibodies and hFcgRs (hFcgRIa, hFcgRIIa(R), hFcgRIIa(H), hFcgRIIb, hFcgRIIIa(F), and hFcgRIIIa(V)) were analyzed using Biacore T100 (GE Healthcare). HBS-EP+(GE Healthcare) was used for the running buffer, and the measurement temperature was set at 25° C. Protein A (Invitrogen) was immobilized by the amino coupling method, and an antibody of interest was captured thereon. Then, hFcγR solutions diluted using the running buffer were injected to allow interaction with the captured antibody at a flow rate of 30 μL/min for five minutes for hFcγRIa, and at a flow rate of 5 μL/min for one minute for the other hFcγRs. […] Since the hFcγR binding level depends on the amount of captured antibodies, the FcgR-binding levels were corrected so that the capture level of each antibody would be 200 RU (resonance unit) for hFcgRIa and 1000 RU (resonance unit) for the other hFcgRs. The captured antibodies were washed by allowing 10 mM glycine-HCl (pH 1.5) to react for 30 seconds at a flow rate of 30 μL/min to recycle the chip for reuse.

[2] = biological target: T2, human Fcγ receptor hFcgRIIa (R) (human, UniProt P12318 36-217)
T2 construct: also called FcγRIIa (type R); FcγIIA
T2 chain: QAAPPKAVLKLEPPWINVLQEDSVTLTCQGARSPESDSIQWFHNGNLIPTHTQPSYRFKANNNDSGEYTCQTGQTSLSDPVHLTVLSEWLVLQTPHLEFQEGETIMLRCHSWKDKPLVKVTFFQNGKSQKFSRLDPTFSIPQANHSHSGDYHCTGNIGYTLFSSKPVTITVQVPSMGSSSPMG
Protocol: as §1, §2

[3] = biological target: T3, human Fcγ receptor hFcgRIIa (H) (human, UniProt P12318 36-217)
T3 construct: also called FcγRIIa (type H); FcγIIA
T3 sequence: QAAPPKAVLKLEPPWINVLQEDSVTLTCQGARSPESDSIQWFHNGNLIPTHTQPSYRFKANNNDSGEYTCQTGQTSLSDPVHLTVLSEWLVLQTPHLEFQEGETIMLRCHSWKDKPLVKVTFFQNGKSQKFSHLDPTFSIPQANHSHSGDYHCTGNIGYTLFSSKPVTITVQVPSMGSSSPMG
Protocol: as §1, §2

[4] = biological target: T4, human Fcγ receptor hFcgRIIb (human, UniProt P31994 43-217, limits assumed)
T4 construct: Construct used in the SPR assay is not described; also called FcγRIIb; FcγIIB
T4 sequence: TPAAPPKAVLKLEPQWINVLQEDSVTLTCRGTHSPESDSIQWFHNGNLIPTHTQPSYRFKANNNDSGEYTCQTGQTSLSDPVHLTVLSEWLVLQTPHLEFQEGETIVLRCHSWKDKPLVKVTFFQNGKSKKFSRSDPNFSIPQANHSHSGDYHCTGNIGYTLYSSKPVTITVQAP
Protocol: as §1, §2

[5] = biological target: T5, human Fcγ receptor hFcgRIIIa (V) (human, UniProt P08637 17-208)
T5 construct: also called FcγRIIIa allotype V158; FcγIIIA
T5 sequence (P08637 other isoform, or with tags, fused parts or gaps limits assumed): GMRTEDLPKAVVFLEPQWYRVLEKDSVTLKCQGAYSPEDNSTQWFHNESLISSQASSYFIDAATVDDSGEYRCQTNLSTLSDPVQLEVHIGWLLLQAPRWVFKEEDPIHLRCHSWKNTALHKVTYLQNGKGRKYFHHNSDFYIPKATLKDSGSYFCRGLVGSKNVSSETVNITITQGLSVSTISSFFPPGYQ
Protocol: as §1, §2

[6] = biological target: T1, human Fcγ receptor hFcgRIa; remark: listed apart in the source
Protocol: (§3) Furthermore, binding ability to hFcgRs was measured by the method described in Reference Example 3.
as §2

[7] = biological target: T2, human Fcγ receptor hFcgRIIa (R)
Protocol: as §3, §2

[8] = biological target: T3, human Fcγ receptor hFcgRIIa (H); remark: listed apart in the source
Protocol: as §3, §2

[9] = biological target: T4, human Fcγ receptor hFcgRIIb; remark: listed apart in the source
Protocol: as §3, §2

[10] = biological target: T5, human Fcγ receptor hFcgRIIIa (V); remark: listed apart in the source
Protocol: as §3, §2

T1 sequence (P12314 16-292 limits assumed): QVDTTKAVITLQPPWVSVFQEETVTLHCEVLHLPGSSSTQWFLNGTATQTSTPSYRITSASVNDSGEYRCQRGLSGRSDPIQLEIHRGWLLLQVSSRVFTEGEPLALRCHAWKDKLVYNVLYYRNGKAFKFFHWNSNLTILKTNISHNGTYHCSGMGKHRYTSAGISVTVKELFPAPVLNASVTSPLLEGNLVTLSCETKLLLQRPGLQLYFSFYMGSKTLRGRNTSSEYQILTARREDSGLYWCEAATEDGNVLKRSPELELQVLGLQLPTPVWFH

| Binder | binding relative to G1 (=100) [1] | binding relative to G1 (=100) [2] | binding relative to G1 (=100) [3] | binding relative to G1 (=100) [4] | binding relative to G1 (=100) [5] | binding relative to G1 (=100) [6] | binding relative to G1 (=100) [7] | binding relative to G1 (=100) [8] | binding relative to G1 (=100) [9] | binding relative to G1 (=100) [10] |
| --- | --- | --- | --- | --- | --- | --- | --- | --- | --- | --- |
| TS2 (antibody, anti-IL6R IgG1, G1d with V266I/H268Q/E269D/D270E (EU); also called TS02) heavy: QVQLQESGPGLVRPSQTLSLTCTVSGYSITSDHAWSWVRQPPGRGLEWIGYISYSGITTYNPSLKSRVTMLRDTSKNQFSLRLSSVTAADTAVYYCARSLARTTAMDYWGQGSLVTVSSASTKGPSVFPLAPSSKSTSGGTAALGCLVKDYFPEPVTVSWNSGALTSGVHTFPAVLQSSGLYSLSSVVTVPSSSLGTQTYICNVNHKPSNTKVDKKVEPKSCDKTHTCPPCPAPELLGGPSVFLFPPKPKDTLMISRTPEVTCVVVDISQDEPEVKFNWYVDGVEVHNAKTKPREEQYNSTYRVVSVLTVLHQDWLNGKEYKCKVSNKALPAPIEKTISKAKGQPREPQVYTLPPSRDELTKNQVSLTCLVKGFYPSDIAVEWESNGQPENNYKTTPPVLDSDGSFFLYSKLTVDKSRWQQGNVFSCSVMHEALHNHYTQKSLSLSP light: not shown | 98.3 | 67.3 | 123 | 61.6 | 130 | – | – | – | – | – |
| TS42 (antibody, anti-IL6R IgG1, G1d with L234K/L235R/Q295M/Y296G/S298G/N325G (EU)) heavy: QVQLQESGPGLVRPSQTLSLTCTVSGYSITSDHAWSWVRQPPGRGLEWIGYISYSGITTYNPSLKSRVTMLRDTSKNQFSLRLSSVTAADTAVYYCARSLARTTAMDYWGQGSLVTVSSASTKGPSVFPLAPSSKSTSGGTAALGCLVKDYFPEPVTVSWNSGALTSGVHTFPAVLQSSGLYSLSSVVTVPSSSLGTQTYICNVNHKPSNTKVDKKVEPKSCDKTHTCPPCPAPEKRGGPSVFLFPPKPKDTLMISRTPEVTCVVVDVSHEDPEVKFNWYVDGVEVHNAKTKPREEMGNGTYRVVSVLTVLHQDWLNGKEYKCKVSGKALPAPIEKTISKAKGQPREPQVYTLPPSRDELTKNQVSLTCLVKGFYPSDIAVEWESNGQPENNYKTTPPVLDSDGSFFLYSKLTVDKSRWQQGNVFSCSVMHEALHNHYTQKSLSLSP light: not shown | – | – | – | – | – | -0.2 | 1.3 | 1.6 | 6.9 | 1.3 |
| TS41 (antibody, anti-IL6R IgG1, G1d with L234K/L235R/H268K/D270F/Q295M/Y296G/S298G/N325H (EU)) heavy: QVQLQESGPGLVRPSQTLSLTCTVSGYSITSDHAWSWVRQPPGRGLEWIGYISYSGITTYNPSLKSRVTMLRDTSKNQFSLRLSSVTAADTAVYYCARSLARTTAMDYWGQGSLVTVSSASTKGPSVFPLAPSSKSTSGGTAALGCLVKDYFPEPVTVSWNSGALTSGVHTFPAVLQSSGLYSLSSVVTVPSSSLGTQTYICNVNHKPSNTKVDKKVEPKSCDKTHTCPPCPAPEKRGGPSVFLFPPKPKDTLMISRTPEVTCVVVDVSKEFPEVKFNWYVDGVEVHNAKTKPREEMGNGTYRVVSVLTVLHQDWLNGKEYKCKVSHKALPAPIEKTISKAKGQPREPQVYTLPPSRDELTKNQVSLTCLVKGFYPSDIAVEWESNGQPENNYKTTPPVLDSDGSFFLYSKLTVDKSRWQQGNVFSCSVMHEALHNHYTQKSLSLSP light: not shown | – | – | – | – | – | 0.2 | 1.2 | 1.4 | 4.2 | 1 |
| TS7 (antibody, anti-IL6R IgG1, G1d with K326S/S324H/A330H (EU); also called TS07) heavy: QVQLQESGPGLVRPSQTLSLTCTVSGYSITSDHAWSWVRQPPGRGLEWIGYISYSGITTYNPSLKSRVTMLRDTSKNQFSLRLSSVTAADTAVYYCARSLARTTAMDYWGQGSLVTVSSASTKGPSVFPLAPSSKSTSGGTAALGCLVKDYFPEPVTVSWNSGALTSGVHTFPAVLQSSGLYSLSSVVTVPSSSLGTQTYICNVNHKPSNTKVDKKVEPKSCDKTHTCPPCPAPELLGGPSVFLFPPKPKDTLMISRTPEVTCVVVDVSHEDPEVKFNWYVDGVEVHNAKTKPREEQYNSTYRVVSVLTVLHQDWLNGKEYKCKVHNSALPHPIEKTISKAKGQPREPQVYTLPPSRDELTKNQVSLTCLVKGFYPSDIAVEWESNGQPENNYKTTPPVLDSDGSFFLYSKLTVDKSRWQQGNVFSCSVMHEALHNHYTQKSLSLSP light: not shown | 99.8 | 117 | – | 126 | 86.2 | – | – | – | – | – |
| TS61 (antibody, anti-IL6R IgG1, G1d with G385D/Q386P/N389S (EU)) heavy: QVQLQESGPGLVRPSQTLSLTCTVSGYSITSDHAWSWVRQPPGRGLEWIGYISYSGITTYNPSLKSRVTMLRDTSKNQFSLRLSSVTAADTAVYYCARSLARTTAMDYWGQGSLVTVSSASTKGPSVFPLAPSSKSTSGGTAALGCLVKDYFPEPVTVSWNSGALTSGVHTFPAVLQSSGLYSLSSVVTVPSSSLGTQTYICNVNHKPSNTKVDKKVEPKSCDKTHTCPPCPAPELLGGPSVFLFPPKPKDTLMISRTPEVTCVVVDVSHEDPEVKFNWYVDGVEVHNAKTKPREEQYNSTYRVVSVLTVLHQDWLNGKEYKCKVSNKALPAPIEKTISKAKGQPREPQVYTLPPSRDELTKNQVSLTCLVKGFYPSDIAVEWESNDPPESNYKTTPPVLDSDGSFFLYSKLTVDKSRWQQGNVFSCSVMHEALHNHYTQKSLSLSP light: not shown | – | – | – | – | – | 101 | 106 | 106 | 112 | 96.6 |
| TS40 (antibody, anti-IL6R IgG1, G1d with L234K/L235R/H268K/D270F/Q295M/Y296G/S298G/N325G (EU)) heavy: QVQLQESGPGLVRPSQTLSLTCTVSGYSITSDHAWSWVRQPPGRGLEWIGYISYSGITTYNPSLKSRVTMLRDTSKNQFSLRLSSVTAADTAVYYCARSLARTTAMDYWGQGSLVTVSSASTKGPSVFPLAPSSKSTSGGTAALGCLVKDYFPEPVTVSWNSGALTSGVHTFPAVLQSSGLYSLSSVVTVPSSSLGTQTYICNVNHKPSNTKVDKKVEPKSCDKTHTCPPCPAPEKRGGPSVFLFPPKPKDTLMISRTPEVTCVVVDVSKEFPEVKFNWYVDGVEVHNAKTKPREEMGNGTYRVVSVLTVLHQDWLNGKEYKCKVSGKALPAPIEKTISKAKGQPREPQVYTLPPSRDELTKNQVSLTCLVKGFYPSDIAVEWESNGQPENNYKTTPPVLDSDGSFFLYSKLTVDKSRWQQGNVFSCSVMHEALHNHYTQKSLSLSP light: not shown | – | – | – | – | – | -1.8 | 1.2 | 0.7 | 0.3 | 1 |
| TS43 (antibody, anti-IL6R IgG1, G1d with L234K/L235R/Q295M/Y296G/S298G/N325H (EU)) heavy: QVQLQESGPGLVRPSQTLSLTCTVSGYSITSDHAWSWVRQPPGRGLEWIGYISYSGITTYNPSLKSRVTMLRDTSKNQFSLRLSSVTAADTAVYYCARSLARTTAMDYWGQGSLVTVSSASTKGPSVFPLAPSSKSTSGGTAALGCLVKDYFPEPVTVSWNSGALTSGVHTFPAVLQSSGLYSLSSVVTVPSSSLGTQTYICNVNHKPSNTKVDKKVEPKSCDKTHTCPPCPAPEKRGGPSVFLFPPKPKDTLMISRTPEVTCVVVDVSHEDPEVKFNWYVDGVEVHNAKTKPREEMGNGTYRVVSVLTVLHQDWLNGKEYKCKVSHKALPAPIEKTISKAKGQPREPQVYTLPPSRDELTKNQVSLTCLVKGFYPSDIAVEWESNGQPENNYKTTPPVLDSDGSFFLYSKLTVDKSRWQQGNVFSCSVMHEALHNHYTQKSLSLSP light: not shown | – | – | – | – | – | -0.9 | 1.7 | -0.1 | 6.2 | 1.1 |
